According to publication PMC11335225:
Residue numbers refer to the chain shown, from its start. Names and notes keep the numbering of the source. Blank lines part the entries; values can stand above or below the molecule they belong to.

Assays:
[1] = biological target: flag-tagged KV7.2 channel subunit (UniProt O43526)
[2] = biological target: flag-tagged KV7.2 channel subunit (UniProt O43526); remark: listed apart in the source

UniProt O43526, sequence (O43526 whole entry): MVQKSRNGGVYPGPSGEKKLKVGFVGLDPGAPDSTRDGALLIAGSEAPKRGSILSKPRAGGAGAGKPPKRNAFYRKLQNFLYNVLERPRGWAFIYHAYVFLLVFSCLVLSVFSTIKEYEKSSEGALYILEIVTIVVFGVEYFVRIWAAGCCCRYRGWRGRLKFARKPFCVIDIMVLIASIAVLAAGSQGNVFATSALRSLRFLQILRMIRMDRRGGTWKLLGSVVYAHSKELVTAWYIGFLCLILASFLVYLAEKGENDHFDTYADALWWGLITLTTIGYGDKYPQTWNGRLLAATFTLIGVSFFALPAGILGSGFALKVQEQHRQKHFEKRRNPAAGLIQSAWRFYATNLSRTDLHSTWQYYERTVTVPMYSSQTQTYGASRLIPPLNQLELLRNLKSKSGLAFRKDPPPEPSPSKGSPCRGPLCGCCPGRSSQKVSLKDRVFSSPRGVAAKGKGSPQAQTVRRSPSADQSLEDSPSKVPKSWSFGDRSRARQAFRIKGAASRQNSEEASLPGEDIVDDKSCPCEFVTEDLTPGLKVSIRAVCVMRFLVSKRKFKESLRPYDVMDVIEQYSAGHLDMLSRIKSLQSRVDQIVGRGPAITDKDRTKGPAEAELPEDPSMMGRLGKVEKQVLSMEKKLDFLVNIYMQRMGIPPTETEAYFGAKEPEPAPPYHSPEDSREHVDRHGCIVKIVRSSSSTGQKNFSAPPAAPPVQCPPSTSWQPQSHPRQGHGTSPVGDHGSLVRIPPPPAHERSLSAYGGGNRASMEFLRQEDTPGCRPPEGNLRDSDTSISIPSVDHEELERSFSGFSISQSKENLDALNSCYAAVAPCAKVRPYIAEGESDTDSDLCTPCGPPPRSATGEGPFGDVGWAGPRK

current amplitude (patch clamp) in CHO cells co-transfected with KV8.1(AAA) and wild-type KV7.2 at a 1:1 ratio, relative to co-transfection of wild-type channels [1]: 49.4% | steady-state current density at +20 mV (patch clamp) in CHO cells co-transfected with KV8.1(AAA) and wild-type KV7.2 (4:1), relative to both wild-type constructs [2]: 50%
Molecule: pore-mutated KV8.1(AAA) (from UniProt Q6PIU1 1-500) (natural protein)

current amplitude (patch clamp) in CHO cells co-transfected with KV8.1 G399R and wild-type KV7.2 (4:1), relative to both wild-type constructs [1]: 54%
B1: KV8.1 G399R (natural protein)
chain: MPSSGRALLDSPLDSGSLTSLDSSVFCSEGEGEPLALGDCFTVNVGGSRFVLSQQALSCFPHTRLGKLAVVVASYRRPGALAAVPSPLELCDDANPVDNEYFFDRSSQAFRYVLHYYRTGRLHVMEQLCALSFLQEIQYWGIDELSIDSCCRDRYFRRKELSETLDFKKDTEDQESQHESEQDFSQGPCPTVRQKLWNILEKPGSSTAARIFGVISIIFVVVSIINMALMSAELSWLDLQLLEILEYVCISWFTGEFVLRFLCVRDRCRFLRKVPNIIDLLAILPFYITLLVESLSGSQTTQELENVGRIVQVLRLLRALRMLKLGRHSTGLRSLGMTITQCYEEVGLLLLFLSVGISIFSTVEYFAEQSIPDTTFTSVPCAWWWATTSMTTVGYRDIRPDTTTGKIVAFMCILSGILVLALPIAIINDRFSACYFTLKLKEAAVRQREALKKLTKNIATDSYISVNLRDVYARSIMEMLRLKGRERASTRSSGGDDFWF

current amplitude (patch clamp) in CHO cells co-transfected with KV8.1 W388G and wild-type KV7.2 (4:1), relative to both wild-type constructs [1]: 44.1%
B2: KV8.1 W388G (natural protein)
chain: B1 chain with W385G, R396G
